One protein from article PMC3292560, “Isolation and Characterization of EstC, a New Cold-Active Esterase from Streptomyces coelicolor A3(2)” (PLoS ONE, 2012) can be followed below.

What all share (format): biochemical, Streptomyces coelicolor
Substrate in data set [1]: CC(=O)Oc1ccc([N+](=O)[O-])cc1
Description: purified protein. To be noted: 50 mM Tris-HCl pH 8.5, 0.1% Triton X-100, 35°C, fitted below substrate-inhibiting concentrations.

Substrate in data set [2]: CCCC(=O)Oc1ccc([N+](=O)[O-])cc1
Description: purified protein. To be noted: 50 mM Tris-HCl pH 8.5, 0.1% Triton X-100, 35°C, fitted below substrate-inhibiting concentrations.

Substrate in data set [3]: CCCCC(=O)Oc1ccc([N+](=O)[O-])cc1
Description: purified protein. The following applies: 50 mM Tris-HCl pH 8.5, 0.1% Triton X-100, 35°C, fitted below substrate-inhibiting concentrations.

Substrate in data set [4]: CCCCCC(=O)Oc1ccc([N+](=O)[O-])cc1
Briefly: purified protein. The following applies: 50 mM Tris-HCl pH 8.5, 0.1% Triton X-100, 35°C, fitted below substrate-inhibiting concentrations.

Substrate in data set [5]: CCCCCCCC(=O)Oc1ccc([N+](=O)[O-])cc1
Briefly: purified protein. To be noted: 50 mM Tris-HCl pH 8.5, 0.1% Triton X-100, 35°C, fitted below substrate-inhibiting concentrations.

Substrate in data set [6]: CC(=O)OCC(COC(C)=O)OC(C)=O
Briefly: pH-stat titration of released fatty acid. The following applies: 5 mM Tris-HCl pH 8.5, 1% arabic gum emulsion, 35°C. The source says:
(§1) pH-stat titration of released fatty acid on EstC

Substrate in data set [7]: CCCC(=O)OCC(COC(=O)CCC)OC(=O)CCC
Briefly: pH-stat titration of released fatty acid. The following applies: 5 mM Tris-HCl pH 8.5, 1% arabic gum emulsion, 35°C.
From the text: as §1

B1: EstC (Streptomyces coelicolor A3(2)) (protein)
chain: MSRNAAFSPPPSARAYRLRTARGEFAVVDSPAAAGVAPRGVVMMLPGFTGSKEDFTLLHRPLGARGYRTVAVDGRGQYESDGPEHDESAYARPELARDVLAQAAALGTRVHLVGHSLGGQIARAAVLLDPAPFLSLTLMSSGPARISESQRQRVKLLRDALDTMTMAEVWEVMQAMGPPEEAGAPAPAHGPEDRVRLRDRWLGTRPAQLLATGGQLCTEPDRVAELAAVPLPFHVLSGTYDDTWPVPLLDEMALRLDARRTVVAGAEHSPNTDQPLPTARALADFWDDHPVPPRPYVR
notes: full-length ORF, no signal peptide, N-terminal His-tag (pET16b) kept, E. coli BL21(DE3), IMAC; 34665 Da with tag without initiator Met
A word on the Km: it is the substrate concentration at which the rate is half of its maximum. One may read the kcat as the maximal rate divided by the concentration of active sites. By kcat/Km is commonly meant the second-order rate constant that governs catalysis at low substrate concentration. As for B1, the Km in “purified protein [1]” stood at 2900 ± 800 µM; in “purified protein [2]”, 840 ± 50 µM; in the data set “purified protein [3]” it was 270 ± 30 µM; in the data set “purified protein [4]”, 71 ± 4 µM; in the data set “purified protein [5]”, 110 ± 18 µM; in data set [6], 90000 ± 1000 µM. The Michaelis-Menten constant (Km) in data set [7] amounted to 620 ± 300 µM. The kcat worked out at 451 ± 10 s⁻¹ in the data set “purified protein [1]”; 124 ± 2 s⁻¹ in “purified protein [2]”; 199 ± 6 s⁻¹ in “purified protein [3]”; 41 ± 1 s⁻¹ in “purified protein [4]”; 58 ± 3 s⁻¹ in “purified protein [5]”; 151 ± 2 s⁻¹ in data set [6]. The kcat in data set [7] was 14 ± 1 s⁻¹. The specificity constant (kcat/Km) was found to be 156000 ± 41000 M⁻¹ s⁻¹ in “purified protein [1]”; 148000 ± 10000 M⁻¹ s⁻¹ in the data set “purified protein [2]”; 737000 ± 77000 M⁻¹ s⁻¹ in “purified protein [3]”; 578000 ± 36000 M⁻¹ s⁻¹ in the data set “purified protein [4]”; 527000 ± 90000 M⁻¹ s⁻¹ in the data set “purified protein [5]”; 1700 ± 30 M⁻¹ s⁻¹ in data set [6]. The kcat/Km in data set [7] worked out at 23000 ± 12000 M⁻¹ s⁻¹.
